According to patent US12258605B2, “Alkane oxidation by modified hydroxylases” (The California Institute of Technology, priority 2005, dated 2025):

Experiments:
Assay type in all cases: biochemical
[1] = Kinetic constants for n-alkanes: pentane; conditions: N.a. = not active
Procedure: (§1) Rate measurements. Initial rates of product formation were determined at 25° C. in 100 mM KPi pH 8.0 buffer using purified protein (100 nM) and a substrate concentration of 1.6 mM. In a 5 mL-vial, 20 μL of alkane solution (in ethanol) were dissolved in 400 μL KPi buffer, to which 500 μL enzyme solution at 100-200 nM was added. Reaction was initiated by adding 100 μL of 5 mM NADPH solution, followed by stirring at 300 rpm for 1 minute, and quenched by adding 200 μL chloroform and stirring at 800 rpm for 10 sec. Solutions were transferred to an Eppendorf tube, to which internal standard (10 μL 25 mM 1-bromohexane in ethanol) was added. Tubes were vortexed for 10 sec and centrifuged for 30 sec at 10,000 g. Organic phase was removed and analyzed by GC. For propane, reactions were carried out in a 5 mL-scale using 100-400 nM purified enzyme, propane-saturated buffer (propane concentration≈1.6 mM) and a final NADPH concentration of 500 μM. Reactions were stopped by addition of 200 μL H2SO4 conc. and analyzed by derivatization to alkyl nitrites followed by GC-ECD analysis as described below.
(§2) Products from alkane reactions were identified and quantified by gas chromatography using authentic standards and calibration curves with internal standards. For the reactions with alkanes from pentane to decane, GC analyses were carried out using a Shimadzu GC-17A gas chromatograph, Agilent HP5 column (30 m×0.32 mm×0.1 μm film), 1 μL injection, FID detector, and the following separation program: 250° C. inlet, 250° C. detector, 50° C. oven for 3 min, 5° C./min gradient to 100° C., 25° C./min gradient to 230° C., and 230° C. for 3 min. For butane and propane (TTN) reactions, GC analyses were carried out using a Hewlett-Packard 5890 Series II Plus gas chromatograph, Supelco SPB-1 column (60 m×0.52 mm×0.5 μm film), 0.5 μL injection, FID detector, and the following separation program: 250° C. inlet, 275° C. detector, 80° C. oven for 2 min, 10° C./min gradient to 110° C., 25° C./min gradient to 275° C., and 275° C. for 2.5 min. For ethane and propane (rate) reactions, analysis of reaction mixtures was carried out by derivatization to alkyl nitrites followed by GC-ECD analysis. For laurate, reaction product analysis was carried out by derivatization with N-methyl-N-trimethylsilylheptafluorobutyramide followed by extraction with hexane. Organic solutions were analyzed by FID-GC.
(§3) To further investigate the evolution of substrate specificity, kinetic constants for the C5 to C8 alkanes were determined from Michaelis-Menten plots (Table 19). The preference of 35E11 and its evolutionary predecessors for medium-chain alkanes is indicated by their high C8/C5 specificities ((kcat/Km)8/(kcat/Km)5˜100), where Km appears to be the major contributing factor. […]

[2] = Kinetic measurements (Michaelis-Menten): propane; conditions: N.a. = not active
Procedure: as §1
Kinetic measurements. […] Reactions were carried out in a 5 mL-scale using 100-400 nM purified enzyme and a final NADPH concentration of 1 mM. After 30 seconds, reactions were stopped by addition of 200 μL H2SO4 conc. and analyzed by GC as described below. Propane leakage during the experiment was neglected in reason of short measuring time. All measurements were performed in triplicate. Kinetic parameters were estimated from least-squares nonlinear regression to the Michaelis-Menten equation,
[formula] where v is the initial velocity, S is the substrate concentration, Vmax is the maximum velocity, and Km is the apparent Michaelis constant for the substrate.
as §2, with “For ethane and propane (rate) reactions, analysis of reaction mixtures was carried out by derivatization to alkyl nitrites followed by GC-ECD analysis. For laurate, reaction product analysis was carried out by derivatization with N-methyl-N-trimethylsilylheptafluorobutyramide followed by extraction with hexane.” left out

[3] = Kinetic constants for n-alkanes: hexane; conditions: N.a. = not active
Procedure: as §1, §2, §3

[4] = Propane hydroxylation (rate, total turnover, products)
Procedure: Cell lysates for high throughput screening were prepared as described previously (Peters et al., J. Am. Chem. Soc. 125:13442 (2003); incorporated by reference herein). High-throughput dimethyl ether (DME) screens were performed in 96 well plates as described previously. Improved mutants were selected based on an increased signal compared to 9-10A (for the saturation mutagenesis libraries) and 1-12G (for the recombination library). Reactions on octane and propane were analyzed by gas chromatography as described.
Rates of ethanol formation were measured over 30 min using gas chromatography (GC) coupled to an electron capture detector (ECD) and are reported as nmol ethanol/min/nmol enzyme. Errors are at most 10%. Total turnover number (ttn) was measured using GC after completion of the reaction and is reported as nmol product/nmol protein. Errors are at most 10%. Initial rates of propanol and octanol formation were measured over 1 min by GC and are reported as nmol product/min/nmol protein. Errors are at most 15%. The “ee” of 2-octanol (main product) was measured by GC; the favored enantiomer is listed in parenthesis. Wild-type P450 BM-3 primarily produces 3- and 4-octanol. The yields were not sufficient for the determination of ee for wt BM-3. Mutant 9-10A contains amino acid substitutions R47C, V78A K94I, P142S, T175I, A184V, F205C, S226R, H236Q, E252G, R255S, A290V, and L353V.
In Table 5 the product distribution is determined as ratio of a specific alcohol product to the total amount of all alcohol products (given in %). The product distribution for ketones was similar to alcohol product distribution. The numbers reported here are the (%) total of all ketones relative to total products (alcohols+ketones). The favored enantiomer is listed in parentheses.
For the data shown in Table 6 the initial NADPH consumption rates were measured over 15 seconds at 340 nm as nmol NADPH/min/nmol protein. Octane reactions contained 100 nM P450, 166 uM NADPH, and 4 mM octane in 1% ethanol and potassium phosphate buffer. […] Errors are at most 10%. Initial rates were measured by GC over 1 minute as nmol total products/min/nmol protein. Octane reactions contained 100 nM P450, 500 uM NADPH, and 4 mM octane in 1% ethanol and potassium phosphate buffer. Propane reactions contained 1 uM P450, 500 uM NADPH, and propane-saturated potassium phosphate buffer. Coupling was determined by ratio of product formation rate to NADPH consumption rate. Total turnover numbers were determined as nmol product/nmol enzyme. Octane reactions contained 10-25 nM P450, 500 uM NADPH, and 4 mM octane in 1% ethanol and potassium phosphate buffer. Propane reactions contained 10-25 nM protein, potassium phosphate buffer saturated with propane, and an NADPH regeneration system containing 100 uM NADP+, 2 U/mL isocitrate dehydrogenase, and 10 mM isocitrate.

B1: 35-E11: P450 BM-3 variant, SEQ ID NO:7: 53-5H substitutions plus E464G and I710T (protein)
chain: TIKEMPQPKTFGELKNLPLLNTDKPVQALMKIADELGEIFKFEAPGCVTRYLSSQRLIKEACDESRFDKNLSQALKFFRDFSGDGLFTSWTHEINWKKAHNILLPSFSQQAMKGYHAMMVDIAVQLVQKWERLNADEHIEVSEDMTRLTLDTIGLCGFNYRFNSFYRDQPHPFIISMVRALDEVMNKLQRANPDDPAYDENKRQCQEDIKVMNDLVDKIIADRKARGEQSDDLLTQMLNGKDPETGEPLDDGNISYQIITFLIAGHETTSGLLSFALYFLVKNPHVLQKVVEEAARVLVDPVPSYKQVKQLKYVGMVLNEALRLWPTFPAFSLYAKEDTVLGGEYPLEKGDEVMVLIPQLHRDKTIWGDDVEEFRPERFENPSAIPQHAFKPFGNGQRACIGQQFALHEATLVLGMMLKHFDFEDHTNYELDIKETLTLKPEGFVVKAKSKKIPLGGIPSPSTGQSAKKVRKKAENAHNTPLLVLYGSNMGTAEGTARDLADIAMSKGFAPQVATLDSHAGNLPREGAVLIVTASYNGHPPDNAKQFVDWLDQASADEVKGVRYSVFGCGDKNWATTYQKVPAFIDETLAAKGAENIADRGEADASDDFEGTYEEWREHMWSDVAAYFNLDIENSEDNKSTLSLQFVDSAADMPLAKMHGAFSTNVVASKELQQPGSARSTRHLEIELPKEASYQEGDHLGVIPRNYEGTVNRVTARFGLDASQQIRLEAEEEKLAHLPLAKTVSVEELLQYVELQDPVTRTQLRAMAAKTVCPPHKVELEALLEKQAYKEQVLAKRLTMLELLEKYPACEMKFSEFIALLPSIRPRYYSISSSPRVDEKQASITVSVVSGEAWSGYGEYKGIASNYLAELQEGDTITCFISTPQSEFTLPKDPETPLIMVGPGTGVAPFRGFVQARKQLKEQGQSLGEAHLYFGCRSPHEDYLYQEELENAQSEGIITLHTAFSRMPNQPKTYVQHVMEQDGKKLIELLDQGAHFYICGDGSQMAPAVEATLMKSYADVHQVSEADARLWLQQLEEKGRYAKDVWAG
modifications: mutant P450 35-E11 protein sequence
Km [1]: 1030 ± 57 µM
kcat [1]: 12.7 ± 0.867 s⁻¹
Km [2]: 820 ± 95 µM
kcat [2]: 4.08 ± 0.417 s⁻¹
Km [3]: 370 ± 33 µM
kcat [3]: 11.8 ± 1.15 s⁻¹
Propane ttn ([4]; after completion of the reaction): 6000 nmol product/nmol protein
Propane Rate ([4]; initial rate of propanol formation over 1 min by GC): 210 nmol product/min/nmol protein
